Reference: patent US20240002499A1 (UNIVERSITA DEGLI STUDI DI MILANO, published 2024)
One block for each binder: values may come before it.

How the values were obtained:
[1] = biological target: T1, human CLIC1 protein located on the plasma membrane (tmCLIC1) (human, UniProt O00299 2-241); assay: not specified (same experimental models as tmCLIC1omab)
[2] = biological target: T1, human CLIC1 protein located on the …; assay: cell-based or functional assay
[3] = biological target: CLIC1 protein of microglial cells (BV-2), transmembrane form after stimulation (mouse, UniProt Q9Z1Q5 2-241); assay: cell-based or functional assay
QVELFV sequence = biological target: T2, QVELFV sequence (human); assay: PEPperMAP linear peptide microarray
T2 peptide: QVELFV
Description: (§1) PEPperMAP epitope Mapping® of the tmCLIC1omab antibody was conducted against the peptide […] (amino acids 3-24 of the CLIC1 protein) translated to linear peptides consisting of 5, 10 and 15 amino acids with peptide-peptide overlaps of 4, 9 and 14 amino acids for high-resolution epitope data. The resulting CLIC1 peptide microarrays were incubated with the antibody samples at concentrations of 1 μg/ml, 10 μg/ml, 100 μg/ml and 250 μg/ml in incubation buffer, followed by staining with secondary and control antibodies and reading with a LI-COR Odyssey Imaging System. The intensity of the points and peptide annotation were quantified with the PepSlide® Analyzer.
(§2) Conversely, incubation of a second copy of the microarray of CLIC1 peptides with the tmCLIC1omab monoclonal antibody gave an antibody response with the epitopes formed by peptides adjacent to the VELF consensus motif (SEQ ID NO:22), with all peptide lengths having low or moderate signal-to-noise ratios. Additional very weak interactions of the antibody with the HA control peptides were observed, perhaps because of a cross-reaction or a less specific antibody bond. With the peptides consisting of 10 and […], longer […] (10 aa) (SEQ ID NO:23) and […] (15 aa) (SEQ ID NO:24) consensus motifs were observed, the underlined letters of which form part of linker […] (SEQ ID NO:25) specific to the microarray.

QVELF sequence = biological target: T3, QVELF sequence (human); assay: PEPperMAP linear peptide microarray
T3 peptide: QVELF
Description: as §1, §2

binding result [1]: binds
B1: class IgG2b antibody containing the heavy chain variable region SEQ ID NO:15 and the light chain variable region SEQ ID NO:16 (antibody, V domains shown)
VH: EVKLVESGGGLVKPGGSLKLSCAASGFTFSGYVMSWVRQTPDKRLEWVASISSGGSSYYSDRVKGRLTISRDNARNILFLQMSSLRSEDSAMYYCANGYNYAMDYWGQGTSVTVSS
VL: DIVMTQSHKFMSISVGDRVSITCKASQDVGTAVAWYQQKPGQSPQLLIYWASTWHTGVPDRFTGSGSGTDFTLTITNVQSEDLADYFCQQYKLFPLTFGAGTRLELK
notes: IgG2b

ROS production over time in human glioblastoma cells (fluorescence) [2]: ~5 fold
membrane current, patch-clamp in whole-cell configuration on BV2 microglial cells after β-amyloid [3]: ~4 fold
binding result (QVELFV sequence): binds
binding result (QVELF sequence): binds
B2: tmCLIC1omab (antibody, IgG1, V domains shown)
VH: EVMLVESGGGLVKPGGSLKLSCAASGFAFSNYAMSWIRQIPEKRLEWVATISTGGSSTFYPDSVKGRFTISRDNAKNTLYLQMSSLRSEDTAMYYCTRHAYEAWFAYWGQGTLVTVSA
VL: QIVLTQSPALMSASPGEKVTMTCSASSSVSYMYWYQQRPRSSPKPWIYLTSTLASGVPTRFSGSGSGTSYSLTISSMEAEDAATYYCQQWNSHPLTFGSGTKLEIK
notes: IgG1 class monoclonal antibody from mouse hybridoma; also called tmCLIComab; anti-tmCLIC1 monoclonal antibody
